Here are results for two molecules from article PMC5855320, “Activation of the Notch Signaling Pathway In Vivo Elicits Changes in CSL Nuclear Dynamics” (Developmental Cell, 2018).

What is called Kd is the free concentration of one partner at which half of the binding sites on the other are occupied at equilibrium, for simple one-to-one binding. Low values mean tighter binding, high ones weaker binding.

In series [1] the test system is Su(H) WT (Drosophila melanogaster). Kind of series: ITC. The conditions noted are these: ITC: 50 mM sodium phosphate pH 6.5, 150 mM NaCl, 10 C; 10 uM Su(H) in cell, 100 uM DNA in syringe; one-site model.
The target of series [2] is T1, Recombinant Su(H) (98-523) (Drosophila melanogaster, UniProt P28159 98-523).
T1 construct: Suppressor of Hairless (Su(H)), the Drosophila CSL, residues 98-523; Wild-type parent of the NBM mutant in the ITC experiment; also called Suppressor of Hairless; CSL; source: bacteria, purified (glutathione-Sepharose, cation exchange, size exclusion chromatography)
As to the kind of experiment: ITC; MicroCal VP-ITC; typically 50 μM Su(H) in the syringe and 5 μM NICD in the cell; 25°C; 50 mM sodium phosphate pH 6.5, 150 mM NaCl; one-site binding model. The conditions noted are these: both partners purified. In general terms: Isothermal titration calorimetry measures the heat released or taken up as one component is titrated into another.

T1 sequence (P28159 98-523): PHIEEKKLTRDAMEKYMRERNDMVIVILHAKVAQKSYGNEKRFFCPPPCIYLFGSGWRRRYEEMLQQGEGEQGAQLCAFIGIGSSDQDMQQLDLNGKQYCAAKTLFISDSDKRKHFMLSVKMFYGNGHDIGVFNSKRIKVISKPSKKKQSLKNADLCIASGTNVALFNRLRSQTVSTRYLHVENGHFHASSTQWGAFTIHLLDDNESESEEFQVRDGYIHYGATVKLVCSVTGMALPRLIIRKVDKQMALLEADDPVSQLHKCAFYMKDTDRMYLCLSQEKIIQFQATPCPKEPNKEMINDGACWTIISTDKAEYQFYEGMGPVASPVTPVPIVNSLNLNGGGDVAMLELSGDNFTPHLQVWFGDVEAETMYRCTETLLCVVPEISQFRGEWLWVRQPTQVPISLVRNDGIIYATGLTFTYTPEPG

Take “ITC DNA (Su(H) binding DNA, sequence not given)”: the dissociation constant Kd in series [1] was 0.46 µM.

B1: Recombinant NICD (1762-2142) (domain or fragment, Drosophila melanogaster, UniProt P07207 1762-2142, looked up)
chain: MVLSTQRKRAHGVTWFPEGFRAPAAVMSRRRRDPHGQEMRNLNKQVAMQSQGVGQPGAHWSDDESDMPLPKRQRSDPVSGVGLGNNGGYASDHTMVSEYEEADQRVWSQAHLDVVDVRAIMTPPAHQDGGKHDVDARGPCGLTPLMIAAVRGGGLDTGEDIENNEDSTAQVISDLLAQGAELNATMDKTGETSLHLAARFARADAAKRLLDAGADANCQDNTGRTPLHAAVAADAMGVFQILLRNRATNLNARMHDGTTPLILAARLAIEGMVEDLITADADINAADNSGKTALHWAAAVNNTEAVNILLMHHANRDAQDDKDETPLFLAAREGSYEACKALLDNFANREITDHMDRLPRDVASERLHHDIVRLLDEHVPR
notes: Notch intracellular domain (NICD), Drosophila Notch, residues 1762-2142; also called Notch intracellular domain; source: bacteria, purified (glutathione-Sepharose, cation exchange, size exclusion chromatography)
With B1, the binding result in series [2] is “binds”.
